# Assay results: patent publication US20250163449A1, “HERBICIDE-TOLERANT GENES AND METHOD FOR USING SAME” (QINGDAO KINGAGROOT CHEMICAL COMPOUND CO., LTD., priority 2022, published 2025)
# Changes are numbered by the printed parent chain. Names and notes keep the numbering of the source.
# B1: SEQ ID NO: 50: RdpA mutant L82H + V187L + F182W + R104G + V80T (protein)
# chain: MHAALSPLSQRFERIAVQPLTGVLGAEITGVDLREPLDDSTWNEILDAFHTYQVIYFPGQAITNEQHIAFSRRFGPVDPTPHLKSIEGYPEVQMIRREANESGGVIGDDWHTDSTFLDAPPAAVVMRAIDVPEHGGDTGFLSMYTAWETLSPTMQATIEGLNVVHSATRVFGSLYQAQNRRWSNTSLKVMDVDAGDRETVHPLVVTHPGSGRKGLYVNQVYCQRIEGMTDAESKPLLQFLYEHATRFDFTCRVRWKKDQVLVWDNLCTMHRAVPDYAGKFRYLTRTTVGGVRPAR
# B2: SEQ ID NO: 6 (protein)
# chain: B1 chain with T80V, G104R, W182F
# B3: SEQ ID NO: 54: RdpA mutant L82H + V187L + F182W + R104G + R180W (protein)
# chain: B1 chain with T80V, R180W
# B4: SEQ ID NO: 74 (protein)
# chain: B1 chain with T80V, Q219P
# B5: SEQ ID NO: 30 (protein)
# chain: B1 chain with T80V, G104R
# B6: SEQ ID NO: 122: RdpA mutant L82H + V187L + F182W + G103L + R104G + V105Y (protein)
# chain: B1 chain with T80V, G103L, V105Y
# B7: SEQ ID NO: 58: RdpA mutant L82H + V187L + F182W + R104G + R180M (protein)
# chain: B1 chain with T80V, R180M
# B8: SEQ ID NO: 1: Amino acid sequence of RdpA (wild-type R-dichlorprop dioxygenase) (protein)
# chain: B1 chain with T80V, H82L, G104R, W182F, L187V
# modifications: Sphingobium herbicidovorans
# B9: SEQ ID NO: 26 (protein)
# chain: B1 chain with T80V, G104L, W182F
# B10: SEQ ID NO: 70 (protein)
# chain: B1 chain with T80V, Q219C
# B11: SEQ ID NO: 118: RdpA mutant L82H + V187L + F182W + R104G + V77I (protein)
# chain: B1 chain with V77I, T80V
# B12: SEQ ID NO: 10 (protein)
# chain: B1 chain with T80V, G104R, W182F, L187M
# B13: SEQ ID NO: 66 (protein)
# chain: B1 chain with T80V, D109E
# B14: SEQ ID NO: 2 (protein)
# chain: B1 chain with T80V, G104R, W182F, L187V
# B15: SEQ ID NO: 22 (protein)
# chain: B1 chain with T80V, G104D, W182F
# B16: SEQ ID NO: 34 (protein)
# chain: B1 chain with T80V, G103L, G104R, W182F
# B17: SEQ ID NO: 62 (protein)
# chain: B1 chain with T80V, D108C
# B18: SEQ ID NO: 18 (protein)
# chain: B1 chain with T80V, G104A, W182F
# B19: SEQ ID NO: 14 (protein)
# chain: B1 chain with T80V, G104R, W182F, L187I
# B20: SEQ ID NO: 106: RdpA mutant L82H + V187L + F182W + G103L + T112S (protein)
# chain: B1 chain with T80V, G103L, G104R, T112S
# B21: SEQ ID NO: 98: RdpA mutant L82H + V187L + F182W + G103L + V80T (protein)
# chain: B1 chain with G103L, G104R
# B22: SEQ ID NO: 94 (protein)
# chain: B1 chain with T80V, G103L, G104R, R180W
# B23: SEQ ID NO: 90 (protein)
# chain: B1 chain with T80V, G103L, G104R, R180L
# B24: SEQ ID NO: 114 (protein)
# chain: B1 chain with T80V, G103L, G104R, F247Y
# B25: SEQ ID NO: 130 (protein)
# chain: B1 chain with T80V, T112S, R180M
# B26: SEQ ID NO: 110 (protein)
# chain: B1 chain with T80V, G103L, G104R, T112M
# B27: SEQ ID NO: 134 (protein)
# chain: B1 chain with T80V, T112S, R180W
# B28: SEQ ID NO: 78: RdpA mutant L82H + V187L + F182W + G103L + R180D (protein)
# chain: B1 chain with T80V, G103L, G104R, R180D
# Test system: not listed separately
# Assay: Conversion rate of substrate compound A by E. coli expressing each engineered protein (HPLC, oxygenase activity)
# Assay type: biochemical
# Conditions: Reaction condition 1: bacteria cultured overnight, substrate compound A and IPTG added to react overnight
# From the text: The high-throughput bacterial protein expression was achieved by cloning the synthesized gene that encodes each engineered protein into a bacterial expression vector with a C-terminal histidine tag (His-tag). The vectors were transformed into Escherichia coli (E. coli), and expression of the engineered proteins was induced. E. coli cultures were selected and cultured in centrifuge tubes overnight, meanwhile, added with substrates and IPTG, and the cultures were centrifuged to pellet the bacteria the next day. Alternatively, E. coli cultures were selected and cultured in centrifuge tubes overnight, and centrifuged to pellet the bacteria after adding substrates for reaction the next day. The supernatant of reaction solution was pipetted into a 96-well plate and the absorbance at 510 nm from 4-aminoantipyrine and potassium ferricyanide was measured by an endpoint colorimetric method to detect phenol products. Substrate reduction and product yield were measured by high performance liquid chromatography (HPLC) to detect the oxygenase activity (i.e., enzymatic activity) of the engineered proteins, and the activities of the proteins were compared by calculating conversion rates.
# Conversion rate=(Peak area of initial substrate−Peak area of substrate after reaction)/Peak area of initial substrate*100%
row,Molecule,Conversion rate [%]
1,B1,97.2
2,B2,95.2
3,B3,92.5
4,B4,97.2
5,B5,96.5
6,B6,94.3
7,B7,90
8,B8,0.06
9,B9,96.8
10,B10,94
11,B11,95.8
12,B12,94.1
13,B13,94
14,B14,67.5
15,B15,95.5
16,B16,90
17,B17,90
18,B18,92.1
19,B19,76.8

# Same assay, conditions: Reaction condition 2: bacteria cultured overnight, 8 times dose of substrate compound A of condition 1 added, react 3 hours the next day
row,Molecule,Conversion rate [%]
1,B20,86.3
2,B21,81
3,B22,63.2
4,B8,0.06
5,B23,57.5
6,B24,53
7,B25,88.3
8,B26,54.6
9,B27,77.6
10,B28,79

# Test system: not listed separately
# Assay: Enzymatic kinetic measurements of purified proteins with compound A as substrate
# Assay type: biochemical
# Conditions: purified protein, compound A 0-1000 μM as substrate
# Method: Based on the results of HPLC, representative engineered proteins were selected for protein purification. Further protein characterization, such as Km, Vmax and Kcat, was performed on the 8 engineered proteins from Table 2. Conventional Ni column affinity chromatography was used for protein purification and protein extract purity was assessed by SDS-PAGE analysis. After determining protein concentration by BCA method, enzyme activity was determined.
Molecule,Kcat [S^−1],Km [µM],Vmax
B1,0.07,24.9,15.7
B3,0.35,96.9,81
B6,1.1,96.4,127.9
B7,0.05,28.3,12.3
B11,0.43,83.7,99.5

# Test system: rice (Jinjing 818)
# Assay: Transgenic rice seedlings, compound B added to medium at rooting phase
# Assay type: in vivo
# Conditions: at least 1 μM compound B in medium (0.5 and 1 μM for SEQ ID NO: 42), 17-26 days
# Method: Plant transformation vectors were constructed, each comprising a recombinant DNA molecule encoding an engineered protein (SEQ ID NO: 42/38/82/86/102/106/126/138/142) with the protein-coding sequence optimized for monocot expression, and rice (Jinjing 818) calli were transformed with these vectors using Agrobacterium tumifaciens and standard methods known in the art. Different concentrations of hormone herbicide compound B were added at the rooting phase of the rice seedlings to test hormone resistance, wherein, the test results of control Jinjing 818 plants and transgenic Jinjing 818 plants comprising the protein-coding gene of SEQ ID NO: 42 after adding 0.5 μM and 1 μM compound B to medium for 19 days are shown in FIG. 1. The test results of control Jinjing 818 plants and transgenic Jinjing 818 plants comprising the protein-coding genes of SEQ ID NO: 38/82/86/102/106/126/138/142 after adding 1 μM compound B to medium are shown in FIG. 5-11.
row,Molecule,drug resistance (tolerance to compound B) compared with wild-type plants
1,B20,exhibited better drug resistance

# Test system: rice (Jinjing 818)
# Assay: Transgenic rice T0 plantlets in greenhouse sprayed with compound B
# Assay type: in vivo
# Conditions: medicated medium test and greenhouse spraying test for T0 generation, compound B
# Method: Then, the obtained regenerated TO generation transgenic plantlets grew in the greenhouse, and were sprayed with compound B at the growth stage when approximately two leaves unfolded and the third one just appearing. Resistance levels of plants were recorded and evaluated after spraying treatment, wherein, the test results of control Jinjing 818 plants and transgenic Jinjing 818 plants comprising the protein-coding gene of SEQ ID NO: 42 after applying 20 g, 40 g, 60 g, 80 g, 100 g, 120 g/mu (1 mu=1/15 ha) compound B for corresponding days (DAT) are shown in FIG. 2.
row,Molecule,tolerance compared with the wild types (summary)
1,B20,exhibited apparent tolerance

# Test system: Arabidopsis thaliana
# Assay: T2 transgenic Arabidopsis thaliana seeds screened on compound A medium
# Assay type: in vivo
# Conditions: 0.15 μM compound A in medium, 11-24 days
# From the text: Engineered proteins were selected for Arabidopsis thaliana transformation and plant analysis. DNA constructs were transformed into Arabidopsis thaliana using Agrobacterium tumifaciens and standard methods known in the art.
# The transformed TO transgenic plantlets grew in the greenhouse. T1 generation Arabidopsis thaliana plant seeds produced by transformation of all constructs were collected after approximately 60 days of growth. Transgenic T1 generation Arabidopsis thaliana plants were screened by adding HYG to medium for T1 generation. T1 plants were selfed to produce seeds of T2 generation Arabidopsis thaliana plants. Wherein, compound A was added to medium to screen and test T2 generation Arabidopsis thaliana plant seeds, that were produced by all constructs, comprising unique events screened by T1 generation.
row,Molecule,drug resistance compared with wild-type Arabidopsis thaliana (longer roots and larger leaves)
1,B21,exhibited better drug resistance
2,B28,exhibited better drug resistance
